{"source": "patent US20250051406", "about": "“CELL TARGETING COMPOSITIONS AND METHODS” (The Trustees of Indiana University, published 2025)", "target": "ZFP K-Ras G12D (six-finger zinc finger protein) (synthetic construct)", "sequence (chain, as listed by the source G12D G12D)": "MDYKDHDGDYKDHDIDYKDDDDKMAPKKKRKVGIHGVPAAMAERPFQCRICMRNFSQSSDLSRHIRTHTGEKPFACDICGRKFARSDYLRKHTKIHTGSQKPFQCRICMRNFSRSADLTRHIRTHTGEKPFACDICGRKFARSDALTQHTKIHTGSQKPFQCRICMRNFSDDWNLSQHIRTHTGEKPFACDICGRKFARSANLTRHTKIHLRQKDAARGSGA", "experiment": "dot blot, 400 ng gDNA of PANC-1 (heterozygous G12D), ZFP 10 ug/ml, TBS-T/milk, RT; much stronger than WT or G13D gDNA", "details": "tags: N-terminal 3xFLAG, NLS; expressed in E. coli from pET-30a(+)", "description": "Genomic DNA (gDNA) was extracted from cancer cells using QIAamp DNA Mini Kit (51104, Qiagen Sciences, Inc., Germantown, MD). Concentration of the gDNA was measured by Qubit dsDNA BR Assay kit (Q32853, Invitrogen™, Thermo Fisher Scientific Inc., Waltham, MA) and adjusted to the same contraction. 400 ng of each gDNA was spotted onto a nitrocellulose membrane (15356, Sigma-Aldrich, Burlington, MA) using narrow-mouth pipette tip. Membranes were allowed to dry and then blocked by soaking in 5% non-fat milk in tris-buffered saline tween (TBS-T) at room temperature (RT) for 1 hour. Blocked membranes were incubated with ZFP ([…]) dissolved in milk/TBS-T for 1 hour at RT. The membranes were washed three times with TBS-T and incubated with anti-FLAG@antibody conjugated with horseradish peroxidase (HRP) (86861S, Cell Signaling Technology, Inc., Danvers, MA). The membranes were then washed three times with TBS-T (15 min×1, 5 min×2) and once with TBS (5 min). The signals were developed with enhanced chemiluminescent (ECL) horseradish peroxidase (HRP) substrate (SuperSignal West Pico PLUS Chemiluminescent Substrate, Catalog #34580, Thermo Fisher Scientific) and captured using the ChemiDoc MP Imaging System (12003154, Bio-Rad Laboratories, Hercules, CA).\nFIG. 4 depicts dot blot results showing that the ZFPs from Example 3 can distinguish DNA sequences with one or two point mutations in vitro. […]"}
{"binder": "KRAS G12D target site (codon 12 GAT) (dsDNA) DNA 1: GAGCTGATGGCGTAGGCA DNA 2: TGCCTACGCCATCAGCTC", "values": [{"measurement": "binding result", "result": "binds"}]}
